Data taken from article PMC8548206, “Single-domain antibody screening by isPLA-seq” (Life Science Alliance, 2021).

The binders below were run against T1, HA-tagged SQSTM1 (Homo sapiens (Human)., UniProt Q13501) (assay: proximity ligation; pooled screen (isPLA-seq): Flag-tagged sdAb library co-transfected with HA-tagged SQSTM1 into HEK293T cells, fixed after 48 h, isPLA with anti-HA and anti-Flag antibodies, positive cells sorted by FACS, three rounds, CDR3 sequenced). Conditions: partners not purified.
T1 construct: autophagy receptor SQSTM1, full length; the printed limits 1-440 fit the human protein; also called HA-tagged bait; full length; source: HEK293T, transfected, in fixed cells (screen)

Binder	binding result
anti-SQSTM1 sdAb #10 (Flag-tagged, sdAb library) (VHH, 21-aa CDR3 in place of the CDR3 of cAbBCII10; source: HEK293T, transfected (sdAb library in pcDNA3.1), in fixed cells; not shown: 3x Flag, C-terminal, kept) VHH: QVQLVESGGGSVQAGGSLRLSCTASGGSEYSYSTFSLGWFRQAPGQEREAVAAIASMGGLTYYADSVKGRFTISRDNAKNTVTLQMNNLKPEDTAIYYCAAVLHVLSWDRCEYDPAHDLRTAWGQGTQVTVSS	binds
anti-SQSTM1 sdAb #20 (Flag-tagged, sdAb library) (VHH, 21-aa CDR3 in place of the CDR3 of cAbBCII10; source: HEK293T, transfected (sdAb library in pcDNA3.1), in fixed cells; not shown: 3x Flag, C-terminal, kept) VHH: QVQLVESGGGSVQAGGSLRLSCTASGGSEYSYSTFSLGWFRQAPGQEREAVAAIASMGGLTYYADSVKGRFTISRDNAKNTVTLQMNNLKPEDTAIYYCAAPGHGRPWRAATFPVDEGGGSAWGQGTQVTVSS	binds
anti-SQSTM1 sdAb #17 (Flag-tagged, sdAb library) (VHH, 21-aa CDR3 in place of the CDR3 of cAbBCII10; source: HEK293T, transfected (sdAb library in pcDNA3.1), in fixed cells; not shown: 3x Flag, C-terminal, kept) VHH: QVQLVESGGGSVQAGGSLRLSCTASGGSEYSYSTFSLGWFRQAPGQEREAVAAIASMGGLTYYADSVKGRFTISRDNAKNTVTLQMNNLKPEDTAIYYCAAAVESCDGFRTGRTVPYREVTYWGQGTQVTVSS	binds
anti-SQSTM1 sdAb #24 (Flag-tagged, sdAb library) (VHH, 21-aa CDR3 in place of the CDR3 of cAbBCII10; source: HEK293T, transfected (sdAb library in pcDNA3.1), in fixed cells; not shown: 3x Flag, C-terminal, kept) VHH: QVQLVESGGGSVQAGGSLRLSCTASGGSEYSYSTFSLGWFRQAPGQEREAVAAIASMGGLTYYADSVKGRFTISRDNAKNTVTLQMNNLKPEDTAIYYCAAVRTPVILRCFQSGIFYLVGEVWGQGTQVTVSS	binds
anti-SQSTM1 sdAb #15 (Flag-tagged, sdAb library) (VHH, 21-aa CDR3 in place of the CDR3 of cAbBCII10; source: HEK293T, transfected (sdAb library in pcDNA3.1), in fixed cells; not shown: 3x Flag, C-terminal, kept) VHH: QVQLVESGGGSVQAGGSLRLSCTASGGSEYSYSTFSLGWFRQAPGQEREAVAAIASMGGLTYYADSVKGRFTISRDNAKNTVTLQMNNLKPEDTAIYYCAALRWSWFPSGSTANLSLGIGCTWGQGTQVTVSS	binds
anti-SQSTM1 sdAb #13 (Flag-tagged, sdAb library) (VHH, 21-aa CDR3 in place of the CDR3 of cAbBCII10; source: HEK293T, transfected (sdAb library in pcDNA3.1), in fixed cells; not shown: 3x Flag, C-terminal, kept) VHH: QVQLVESGGGSVQAGGSLRLSCTASGGSEYSYSTFSLGWFRQAPGQEREAVAAIASMGGLTYYADSVKGRFTISRDNAKNTVTLQMNNLKPEDTAIYYCAAREPFARYLRKESYPLFRMYSFWGQGTQVTVSS	binds
anti-SQSTM1 sdAb #11 (Flag-tagged, sdAb library) (VHH, 21-aa CDR3 in place of the CDR3 of cAbBCII10; source: HEK293T, transfected (sdAb library in pcDNA3.1), in fixed cells; not shown: 3x Flag, C-terminal, kept) VHH: QVQLVESGGGSVQAGGSLRLSCTASGGSEYSYSTFSLGWFRQAPGQEREAVAAIASMGGLTYYADSVKGRFTISRDNAKNTVTLQMNNLKPEDTAIYYCAAARAHFASLCDCQGNRITLLCDWGQGTQVTVSS	binds
anti-SQSTM1 sdAb #14 (Flag-tagged, sdAb library) (VHH, 21-aa CDR3 in place of the CDR3 of cAbBCII10; source: HEK293T, transfected (sdAb library in pcDNA3.1), in fixed cells; not shown: 3x Flag, C-terminal, kept) VHH: QVQLVESGGGSVQAGGSLRLSCTASGGSEYSYSTFSLGWFRQAPGQEREAVAAIASMGGLTYYADSVKGRFTISRDNAKNTVTLQMNNLKPEDTAIYYCAAGGNTVKVSNIFEVSSSVRVRLWGQGTQVTVSS	binds
anti-SQSTM1 sdAb #4 (Flag-tagged, sdAb library) (VHH, 21-aa CDR3 in place of the CDR3 of cAbBCII10; source: HEK293T, transfected (sdAb library in pcDNA3.1), in fixed cells; not shown: 3x Flag, C-terminal, kept) VHH: QVQLVESGGGSVQAGGSLRLSCTASGGSEYSYSTFSLGWFRQAPGQEREAVAAIASMGGLTYYADSVKGRFTISRDNAKNTVTLQMNNLKPEDTAIYYCAAAYGNDVQSVAFKYVVGRGYQLWGQGTQVTVSS	binds
anti-SQSTM1 sdAb #23 (Flag-tagged, sdAb library) (VHH, 21-aa CDR3 in place of the CDR3 of cAbBCII10; source: HEK293T, transfected (sdAb library in pcDNA3.1), in fixed cells; not shown: 3x Flag, C-terminal, kept) VHH: QVQLVESGGGSVQAGGSLRLSCTASGGSEYSYSTFSLGWFRQAPGQEREAVAAIASMGGLTYYADSVKGRFTISRDNAKNTVTLQMNNLKPEDTAIYYCAARRGFVRHTKIKLLDYALTEVRWGQGTQVTVSS	binds
anti-SQSTM1 sdAb #18 (Flag-tagged, sdAb library) (VHH, 21-aa CDR3 in place of the CDR3 of cAbBCII10; source: HEK293T, transfected (sdAb library in pcDNA3.1), in fixed cells; not shown: 3x Flag, C-terminal, kept) VHH: QVQLVESGGGSVQAGGSLRLSCTASGGSEYSYSTFSLGWFRQAPGQEREAVAAIASMGGLTYYADSVKGRFTISRDNAKNTVTLQMNNLKPEDTAIYYCAAGIGYAGDCRAHTIATRRFSVGWGQGTQVTVSS	binds
anti-SQSTM1 sdAb #6 (Flag-tagged, sdAb library) (VHH, 21-aa CDR3 in place of the CDR3 of cAbBCII10; source: HEK293T, transfected (sdAb library in pcDNA3.1), in fixed cells; not shown: 3x Flag, C-terminal, kept) VHH: QVQLVESGGGSVQAGGSLRLSCTASGGSEYSYSTFSLGWFRQAPGQEREAVAAIASMGGLTYYADSVKGRFTISRDNAKNTVTLQMNNLKPEDTAIYYCAALLVIDSSVIARLDGRGRSDRLWGQGTQVTVSS	binds

Next, values leading:

binding result	Binder
binds	anti-SQSTM1 sdAb #25 (Flag-tagged, sdAb library) (VHH, 21-aa CDR3 in place of the CDR3 of cAbBCII10; source: HEK293T, transfected (sdAb library in pcDNA3.1), in fixed cells; not shown: 3x Flag, C-terminal, kept) VHH: QVQLVESGGGSVQAGGSLRLSCTASGGSEYSYSTFSLGWFRQAPGQEREAVAAIASMGGLTYYADSVKGRFTISRDNAKNTVTLQMNNLKPEDTAIYYCAAPGDGQEVIFAFVQRSTRAWPVWGQGTQVTVSS
binds	anti-SQSTM1 sdAb #3 (Flag-tagged, sdAb library) (VHH, 21-aa CDR3 in place of the CDR3 of cAbBCII10; source: HEK293T, transfected (sdAb library in pcDNA3.1), in fixed cells; not shown: 3x Flag, C-terminal, kept) VHH: QVQLVESGGGSVQAGGSLRLSCTASGGSEYSYSTFSLGWFRQAPGQEREAVAAIASMGGLTYYADSVKGRFTISRDNAKNTVTLQMNNLKPEDTAIYYCAARVRTSPRSAVADGSAYRSESAWGQGTQVTVSS
binds	anti-SQSTM1 sdAb #26 (Flag-tagged, sdAb library) (VHH, 21-aa CDR3 in place of the CDR3 of cAbBCII10; source: HEK293T, transfected (sdAb library in pcDNA3.1), in fixed cells; not shown: 3x Flag, C-terminal, kept) VHH: QVQLVESGGGSVQAGGSLRLSCTASGGSEYSYSTFSLGWFRQAPGQEREAVAAIASMGGLTYYADSVKGRFTISRDNAKNTVTLQMNNLKPEDTAIYYCAAFPSRLKCTRGCGCRTFNFPALWGQGTQVTVSS
binds	anti-SQSTM1 sdAb #19 (Flag-tagged, sdAb library) (VHH, 21-aa CDR3 in place of the CDR3 of cAbBCII10; source: HEK293T, transfected (sdAb library in pcDNA3.1), in fixed cells; not shown: 3x Flag, C-terminal, kept) VHH: QVQLVESGGGSVQAGGSLRLSCTASGGSEYSYSTFSLGWFRQAPGQEREAVAAIASMGGLTYYADSVKGRFTISRDNAKNTVTLQMNNLKPEDTAIYYCAARQAPFGSRCSISSSPKGRYPSWGQGTQVTVSS
binds	anti-SQSTM1 sdAb #16 (Flag-tagged, sdAb library) (VHH, 21-aa CDR3 in place of the CDR3 of cAbBCII10; source: HEK293T, transfected (sdAb library in pcDNA3.1), in fixed cells; not shown: 3x Flag, C-terminal, kept) VHH: QVQLVESGGGSVQAGGSLRLSCTASGGSEYSYSTFSLGWFRQAPGQEREAVAAIASMGGLTYYADSVKGRFTISRDNAKNTVTLQMNNLKPEDTAIYYCAANMAIRVRWVAMFTCGPIGGVGWGQGTQVTVSS
binds	anti-SQSTM1 sdAb #2 (Flag-tagged, sdAb library) (VHH, 21-aa CDR3 in place of the CDR3 of cAbBCII10; also called clone #2; source: HEK293T, transfected (sdAb library in pcDNA3.1), in fixed cells; not shown: 3x Flag, C-terminal, kept) VHH: QVQLVESGGGSVQAGGSLRLSCTASGGSEYSYSTFSLGWFRQAPGQEREAVAAIASMGGLTYYADSVKGRFTISRDNAKNTVTLQMNNLKPEDTAIYYCAARAGVCGVVGSFSMYTIGNWVYWGQGTQVTVSS
binds	anti-SQSTM1 sdAb #5 (Flag-tagged, sdAb library) (VHH, 21-aa CDR3 in place of the CDR3 of cAbBCII10; source: HEK293T, transfected (sdAb library in pcDNA3.1), in fixed cells; not shown: 3x Flag, C-terminal, kept) VHH: QVQLVESGGGSVQAGGSLRLSCTASGGSEYSYSTFSLGWFRQAPGQEREAVAAIASMGGLTYYADSVKGRFTISRDNAKNTVTLQMNNLKPEDTAIYYCAAYDRVGGGHVLIACYSDDLCMGWGQGTQVTVSS
binds	anti-SQSTM1 sdAb #22 (Flag-tagged, sdAb library) (VHH, 21-aa CDR3 in place of the CDR3 of cAbBCII10; source: HEK293T, transfected (sdAb library in pcDNA3.1), in fixed cells; not shown: 3x Flag, C-terminal, kept) VHH: QVQLVESGGGSVQAGGSLRLSCTASGGSEYSYSTFSLGWFRQAPGQEREAVAAIASMGGLTYYADSVKGRFTISRDNAKNTVTLQMNNLKPEDTAIYYCAAACELDAVRLWPDFVRPAVFSIWGQGTQVTVSS
binds	anti-SQSTM1 sdAb #12 (Flag-tagged, sdAb library) (VHH, 21-aa CDR3 in place of the CDR3 of cAbBCII10; source: HEK293T, transfected (sdAb library in pcDNA3.1), in fixed cells; not shown: 3x Flag, C-terminal, kept) VHH: QVQLVESGGGSVQAGGSLRLSCTASGGSEYSYSTFSLGWFRQAPGQEREAVAAIASMGGLTYYADSVKGRFTISRDNAKNTVTLQMNNLKPEDTAIYYCAADQVRDHSWCNLFRTLRVCVLIWGQGTQVTVSS
binds	anti-SQSTM1 sdAb #27 (Flag-tagged, sdAb library) (VHH, 21-aa CDR3 in place of the CDR3 of cAbBCII10; source: HEK293T, transfected (sdAb library in pcDNA3.1), in fixed cells; not shown: 3x Flag, C-terminal, kept) VHH: QVQLVESGGGSVQAGGSLRLSCTASGGSEYSYSTFSLGWFRQAPGQEREAVAAIASMGGLTYYADSVKGRFTISRDNAKNTVTLQMNNLKPEDTAIYYCAAIIAELCSGLPCTSFLRTPCPVWGQGTQVTVSS
binds	anti-SQSTM1 sdAb #21 (Flag-tagged, sdAb library) (VHH, 21-aa CDR3 in place of the CDR3 of cAbBCII10; source: HEK293T, transfected (sdAb library in pcDNA3.1), in fixed cells; not shown: 3x Flag, C-terminal, kept) VHH: QVQLVESGGGSVQAGGSLRLSCTASGGSEYSYSTFSLGWFRQAPGQEREAVAAIASMGGLTYYADSVKGRFTISRDNAKNTVTLQMNNLKPEDTAIYYCAADLWAPLMVCSGGLTQMLSNSDWGQGTQVTVSS
